B1: Human SALL4 ZF1-2(370–454) (domain or fragment)
chain: DVKPKDEAALYKHKCKYCSKVFGTDSSLQIHLRSHTGERPFVCSVCGHRFTTKGNLKVHFHRHPQVKANPQLFAEFQDKVAAGNG
B2: Human SALL4 ZF1-2(379–432) (domain or fragment)
chain: LYKHKCKYCSKVFGTDSSLQIHLRSHTGERPFVCSVCGHRFTTKGNLKVHFHRH
B3: Human SALL4 ZF2(405–432) (domain or fragment)
chain: not shown

Key:
[1] = target: T1, DDB1:CRBN complex, full-length human CRBN (residues 1–442) with N-terminal biotinylated Avi-tag, co-expressed … (human, UniProt Q96SW2 1-442; Q16531 1-1140, biotin on the Avi-tag (BirA, 100% efficiency)); experiment: SPR; CC-220 5 uM
[2] = target: T1, DDB1:CRBN complex, full-length human …; experiment: SPR; pomalidomide 5 uM
[3] = target: T1, DDB1:CRBN complex, full-length human …; experiment: SPR; CC-220
[4] = target: T1, DDB1:CRBN complex, full-length human …; experiment: SPR; CC-220; remark: listed apart in the source
[5] = target: T1, DDB1:CRBN complex, full-length human …; experiment: SPR; pomalidomide
[6] = target: T1, DDB1:CRBN complex, full-length human …; experiment: SPR; pomalidomide; remark: listed apart in the source

T1 sequence (Q96SW2 whole entry, chain 1 of 2, the tested form may be a part): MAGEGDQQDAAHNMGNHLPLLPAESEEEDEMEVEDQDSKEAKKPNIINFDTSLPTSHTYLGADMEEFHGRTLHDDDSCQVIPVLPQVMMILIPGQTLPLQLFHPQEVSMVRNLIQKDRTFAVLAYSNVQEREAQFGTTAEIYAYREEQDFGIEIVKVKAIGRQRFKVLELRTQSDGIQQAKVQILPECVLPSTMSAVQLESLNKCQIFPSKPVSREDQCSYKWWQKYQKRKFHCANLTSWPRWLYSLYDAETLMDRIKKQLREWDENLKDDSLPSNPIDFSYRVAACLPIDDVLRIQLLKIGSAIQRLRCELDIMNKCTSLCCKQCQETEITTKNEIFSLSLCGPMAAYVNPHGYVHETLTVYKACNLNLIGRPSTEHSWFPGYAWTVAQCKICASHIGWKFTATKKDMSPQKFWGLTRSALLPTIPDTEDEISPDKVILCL
T1 sequence (Q16531 whole entry, chain 2 of 2, the tested form may be a part): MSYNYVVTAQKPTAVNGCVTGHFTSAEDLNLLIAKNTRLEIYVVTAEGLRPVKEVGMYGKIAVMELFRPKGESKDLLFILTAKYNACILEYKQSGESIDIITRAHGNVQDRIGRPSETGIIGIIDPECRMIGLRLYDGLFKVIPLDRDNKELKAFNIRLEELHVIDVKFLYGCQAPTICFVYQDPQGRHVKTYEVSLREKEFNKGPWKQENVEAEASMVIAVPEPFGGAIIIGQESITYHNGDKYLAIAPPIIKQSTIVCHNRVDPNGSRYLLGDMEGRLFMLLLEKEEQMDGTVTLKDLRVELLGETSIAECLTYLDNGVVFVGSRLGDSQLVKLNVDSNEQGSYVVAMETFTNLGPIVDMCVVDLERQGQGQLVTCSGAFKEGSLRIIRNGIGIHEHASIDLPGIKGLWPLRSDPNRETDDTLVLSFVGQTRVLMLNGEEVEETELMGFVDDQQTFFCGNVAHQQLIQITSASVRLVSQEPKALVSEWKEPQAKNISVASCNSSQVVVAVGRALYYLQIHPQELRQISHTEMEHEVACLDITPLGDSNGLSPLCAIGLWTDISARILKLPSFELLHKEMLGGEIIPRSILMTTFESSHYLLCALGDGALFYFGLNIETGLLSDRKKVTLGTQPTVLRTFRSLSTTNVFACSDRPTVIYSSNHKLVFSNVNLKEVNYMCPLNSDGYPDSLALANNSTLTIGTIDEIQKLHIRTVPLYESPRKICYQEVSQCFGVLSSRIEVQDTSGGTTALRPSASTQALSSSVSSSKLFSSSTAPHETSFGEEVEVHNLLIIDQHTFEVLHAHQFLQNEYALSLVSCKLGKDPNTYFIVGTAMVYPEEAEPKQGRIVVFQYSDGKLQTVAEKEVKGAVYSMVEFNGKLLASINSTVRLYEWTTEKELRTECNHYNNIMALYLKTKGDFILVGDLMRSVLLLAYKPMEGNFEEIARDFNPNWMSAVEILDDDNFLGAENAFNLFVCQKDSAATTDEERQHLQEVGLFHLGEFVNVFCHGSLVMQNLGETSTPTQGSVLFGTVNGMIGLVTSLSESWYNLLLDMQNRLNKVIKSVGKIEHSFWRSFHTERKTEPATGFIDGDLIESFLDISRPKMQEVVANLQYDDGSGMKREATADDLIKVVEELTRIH

Binder | Kd [1] | Kd [2] | Kd [3] | koff [4] | Kd [5] | koff [6]
TGERPFVCSVCGHRFTTKGNLKVHFHRHPQVKANPQLFAEFQDKVAAGNG (domain or fragment) [Human SALL4 ZF2(405–454)] | 2100 nM | 700 nM | – | – | – | –
B1 | 310 nM | 60 nM | 0.28 µM | 0.042 s⁻¹ | 60 nM | 0.015 s⁻¹
B2 | – | – | 150 µM | 0.34 s⁻¹ | 2100 nM | 0.26 s⁻¹
TGERPFVCSVCGHRFTTKGNLKVHFHRHPQVKA (domain or fragment) [Human SALL4 ZF2(405–437)] | 4000 nM | – | – | – | – | –
B3 | – | 67100 nM | – | – | – | –

From PMC10716131 (2023)
